# In the DeepSol protein solubility set:
# Assay: soluble on expression in E. coli; label from the status in PepcDB or PDB records
row,Sequence,soluble on expression in E. coli
1,MAHHHHHHMKFTISTSIEDVLFKGGFRVKEMRLNDFLTVIFGGRSILRANRSVLLRDFFSDPTRYIHDAGVLNEIQATGAYARMEEAVRDEIIFEEDRSKLRDKGVINLLGWSEAAANVKTTVHNNNKNSLDAALEEARNPTTTSTPIYLEGCYESVYNAKWHHLVEVPGGEGTGMDVEEGEPPQS,not soluble
2,MGSDKIHHHHHHMSVVDFSKLYPDNRQEGETVLRQAQLVMLRMLKIIDYICRKHDISYWMCSGTLLGAVRHKGFIPWDDDLDICMIREDYERFVEIAVNEFPEDMMLQTRETDPHYHYLPLPCKVRDKKSFILSPGYEDEECEKGLFIDIFPMDRYHKQKLPFMFEKMVKVYNTFICKSLDAIYFKDESIDKKILAFFHPVFHKLVLQYMKFAKKLIDKNRGLGTDCRLGHGFDTLWKRYLRFDDIFPVVEIDFEDSKFFAPHRPDVYLTTLYGPNYMTPPPEKQRLAAQHAHEIKPII,not soluble
3,MNRHSTTSGNLNTVFGYVDEETVSQGISASYVGSGKLVGNRLVRHTQTSLFSSANTW,not soluble
4,MMLVRSVFRSQLRPSVSGGLQSASCYSSLSAASAEAERTIREGPRNDWSRDEIKSVYDSPLLDLLFHGAQVHRHVHNFREVQQCTLLSIKTGGCSEDCSYCPQSSRYSTGVKAQRLMSKDAVIDAAKKAKEAGSTRFCMGAAWRDTIGRKTNFSQILEYIKEIRGMGMEVCCTLGMIEKQQALELKKAGLTAYNHNLDTSREYYPNVITTRSYDDRLETLSHVRDAGINVCSGGIIGLGEAEEDRIGLLHTLATLPSHPESVPINALLAVKGTPLEDQKPVEIWEMIRMIGTARIVMPKAMVRLSAGRVRFSMSEQALCFLAGANSIFTGEKLLTTPNNDFDADQLMFKTLGLIPKPPSFSEDDSESENCEKVASASH,not soluble
5,MASMTGGQQMGRGMAGPEIVKLKKILREKAVPPGTEVPLDVMRKGMEKVAFKAADDIQVEQVTVAGCAAEWVRAPGCQAGKAILYLHGGGYVMGSINTHRSMVGEISRASQAAALLLDYRLAPEHPFPAAVEDGVAAYRWLLDQGFKPQHLSISGDSAGGGLVLAVLVSARDQGLPMPASAIPISPWADMTCTNDSFKTRAEADPMVAPGGINKMAARYLNGADAKHPYASPNFANLKGLPPLLIHVGRDEVLLDDSIKLDAKAKADGVKSTLEIWDDMIHVWHAFHPMLPEGKQAIVRVGEFMREQWAALAAALEHHHHHH,soluble
6,RQGELSIACLPVFSQSFLPLLLPPFLSRYPEVSLQIVPQESPLLEEWLSAQRHDLGLTETLHTPAGTERTPLLTLNEVCVLPAGHPLAAQATLTPADFQGENYISLSRTDSYRQLLDALFLEHQVKRRMVVETHSAASICAMVRAGA,not soluble
7,RPAPLWAVVADAAVQPAMAAGNDDFETARALDTARELVAGLREGVDSLGGDVAEFKAAIPQHNFEQICDGCFAPIDPGVEPDYVVAHRVSCCMIYHSPTAGKCTSCPHQDKDVRKNALIAASESF,not soluble
8,MGHHHHHHSHMALAARLLPQFLHSRSLPCGAVRLRTPAVAEVRLPSATLCYFCRCRLGLGAALFPRSARALAASALPAQGSRWPVLSSPGLPAAFASFPACPQRSYSTEEKPQQHQKTKMIVLGFSNPINWVRTRIKAFLIWAYFDKEFSITEFSEGAKQAFAHVSKLLSQCKFDLLEELVAKEVLHALKEKVTSLPDNHKNALAANIDEIVFTSTGGISIYYDEKGRKFVNILMCFWYLTSANIPSETLRGASVFQVKLGNQNVETKQLLSASYEFQREFTQGVKPDWTIARIEHSKLLE,not soluble
9,SLSLLIDIVDETGSVSEEMLKEVENLLQFAAEREGVQDQAEVSVTIVSNDDIHQINKEYRGKDAPTDVISFALEEEGEGEIEIVGAEMPPVLGNIIISADRTREQAEEYNHSFKRELGFLAVHGFLHLLGYDHMTKEEEEEMFTKQKELLDAYGLKRS,soluble
10,MGSDKIHHHHHHMKNLLITVFFLSLTLQLSAETGGSNAVIVEKTTASPAEKTPVYWQKMADGMSQALIKHFWGANFKGYENRFYFNYGSDLSNMTTNHYWPQAHAMDVMVDAYMRTGSKQYLNIYPLWWEGAPKFNFAGREEDPWWNVFVDDMEWIALAQIRMFESTKNTKYLKKARQTYDDWVWSTWGPEDEAPWFGGITWKTDVAKSKNACSNGPAALIAARLYNFYDAMGKKAGKPKQAYLNEAIKIYTWEKNNLFDRQTGAVYDSMNGEGKITKWVFSYNSGTFLGAAHELYKITGDKQYLADAVKAANFVIDHLSTNEGVLSDAEGGDGGLFHGIFFRYFVKLINDPALDSANYNKFRDYITHCATVMAEQGVNQKTMLYSGRWRKAPADDESVGLTSHLTGCMLMEAMCVLKHR,not soluble
11,MSLRTMLTQKFVVDSMLGKIARWLRIMGYDTLYSNDFEDWKILKIAETQKRIIITRDRGIYYRSLKRGLNCILLSPDSNIIQDLAFIALRSKIDLSVNINATRCPQCNSVLSKLSESMWLCPKCKKEYWKGRHWRTIEEIIIKANSELVKLETKNDSRGTGTDTGVKRRDRTVTNRNSEGHHHHHH,soluble
12,MEQDDPSGEWPLIAALPVRQDVPVDALLADVAAQLAAEGLRTAGFLQRDGVRLEDLTSGALYPITQDLGPGSSGCRLDPAGLALAAAAGLAALERGADLLVIPRFGKAEIEGEGMRGVIGRACELGVPTLVGVRQSAEPAWETFAGGLAEWIAPERQAVAGWCRTACAPVRCRTLEHHHHHH,not soluble
13,MTLSRFAYNGQRCPSSHNILDNSKIISEDCRKELTELFHHYYPIEIDPHRTIKEKLPHMVQWWSKAHSLLCQQRIQKVQIAQVVGESTAMLREGYKTFFDTLYQNNIPLFIFSAGIGDILEEIIRQMKVFHPNIHIVSNYMDFSEDGFLKGFKGQLIHTYNKNSSVCENSSYFQQLQNKTNIILLGDSIGDLTMADGVPGVQNILKIGFLNDKVEERRERYMDSYDIVLEKDETLDVVNGLLRHILYQGDCVELQGS,soluble
14,MGSDKIHHHHHHQVSGDTVKIGFITDLSGLYADIDGQGGVEAIKMAIEDAGGKVLGKPIELVTADHQNKADIAASKAREWMDQQGLDVLIGGTNSGTALAMNKVAAEKKRVYINNGAGTARLTNEECSPYTVHYAYDTVALAKGTGSAVVKQGGKSWFFLTADYAFGHSLESDTAAVVKANGGTVLGSVRHPLSASDFSSFLLQAQASKAQILGLANAGGDTINSIKAAKEFGITKTMKIAGLLMFINDIHSLGLKNTEGLLMTDSWYWDMNDDTRKFANRYFSKMKKMPSSLQAADYSAVSTYLKAVAAAKTDDPDKVMAELKKTKINDFYTKGYIRQDGRGIHDMYLMQVKSPAESKKPWDYLKIVATIPGDQAFTTVAESKCSMMKK,not soluble
15,MAINNSAQKFIARNRAPRVQIEYDVEIYGSEKKIELPFVMAVLADLAGKPREELPPVTDRKFLDIDIDNFNERMKAIAPRVAFAVPNTLTGEGQLMVDITLENMDDFSPAQIARKVDALNQLLEARTQLANLQTYMDGKAGAENLVNKLLQDPTLLKTLANAPKSAATQQDVSADNESAE,not soluble
16,MGSDKIHHHHHHMSAGLTGIRVAVIGGDDREIYMIPELQKLGAYIVGVGFEKAAPIQGVTLLSSPLEAVEKADVLLFPMYGTDERGDVKAKYSETPIVLNKELLKAVSPKVPLFIGWARPALKSAAEMLGIQIVETANLDQLAILNSIPSAEGAIQMAMEASPITIHGSESFVLGLGRCGWTLARTLKGMGAHVTGVARKPADLARALEMGLEAVHFADLDEKIGKAELIFNTVPHLILDKVMLEQVNHEAVIIDIASLPGGTDFEYAKAKGIKAMLAPGLPGKVAPKAAGKILAQVYPQLILRHLTTKNASLKF,not soluble
17,MITAYIALGSNLNTPVEQLHAALKAISQLSNTHLVTTSSFYKSKPLGPQDQPDYVNAVAKIETELSPLKLLDELQRIENEQGRVRLRRWGERTLDLDILLYGNEIIQNERLTIPHYDMHNREFVIVPLFEIASDLVLPNSQIITELVKQFADHKMIKLNP,soluble
18,GMMTHYSDNTLKVAHQGFEFFTQGLATGEWQKFLDMLTEDFTFWFPMGEFHGLNVGKERAKEFFTYVSESFHTGIQISSLDRVTSNETTVVFEFRDEGLFLGKPYKNRVAVSFDVRGDKICSYREYFGSDGKSN,soluble
19,RTNRTGMATAIPDSLHKIFYTAAGRRVEDAGGILPDIEVKQDTAATLLYYMAINNDVFDFVTGYVLKHKTIAKPEDFSITNEDYAAFCKMMEEKKFDYDRQSGKMLDKLEELAKIEGYLPEANSELKALREKLKPNLSRDLLRFKKEITNYLNNEIVTRYYYERGSIRQSLPEDKVVKEAIKLLKDHPEQIRQILAAPKAENKG,not soluble
20,MSLAISQEQKQAIDQALTERLLHHPFYQEAKVIATYLSFSHEFQTRELIEQALKDGKKVLIPKTYPKGRMEFVAYDPQQLVKTSFALLEPQGDVEVVDASQIDLIHVPGLAFTTKGYRIGYGGGYYDRYLEHFSGRTLSTIYPCQIQDFIPENHDIPVQEVLIDEGNLEGHHHHHH,soluble
21,VFDRPLFALDFSKCTEKIIQTTELFKELVKEAILLHVVDYGKESEVEENIQKATQKLKEIAEKLDFPSEVVVHSGDASKEILMTAPSVGATLIVIGKRGRNILQLLMGSTAEIVIRNSVLPVLIVP,not soluble
22,MGSDKIHHHHHHLFAIRDEHLALDIVQDSMMKLVEKYSAKPLEELPLLFQRILQNTIRDFYRRQKTRSLWTTLFSAFIPSDHEKESEDFDLLETLQSDPSSSKVNDPHQQLEQSQLINLLERAIETLPARQREAFLLRYWEEMDVMETAKIMGCSEGSVKTHCSRATHTLAAMLKKHGIGL,not soluble
23,MDGTIKEALSVVSDDQSLFDSAYGAAAHLPKADMTASGSPDYGQPHKINPLPPQQEWINQPVRVNVKREYDHMNGSRESPVDCSVSKCSKLVGGGESNPMNYNSYMDEKNGPPPPNMTTNERRVIVPADPTLWTQEHVRQWLEWAIKEYSLMEIDTSFFQNMDGKELCKMNKEDFLRATTLYNTEVLLSHLSYLRESSLLAYNTTSHTDQSSRLSVKEDPSYDSVRRGAWGNNMNSGLNKSPPLGGAQTISKNTEQRPQPDPYQILGPTSSRLANPGSGQIQLWQFLLELLSDSANASCITWEGTNGEFKMTDPDEVARRWGERKSKPNMNYDKLSRALRYYYDKNIMTKVHGKRYAYKFDFHGIAQALQPHPTESSMYKYPSDISYMPSYHAHQQKVNFVPPHPSSMPVTSSSFFGAASQYWTSPTGGIYPNPNVPRHPNTHVPSHLGSYY,soluble
24,MGSDKIHHHHHHMAKIHMVLQGKGGVGKSMIAATIAQYKAGKGQKPLCIDTDPVNATFEGYKALNVRRLNIMDGDEINTRNFDALVEMIASAEGDVIIDNGASSFVPLSHYLISNQVPALLQDMGHELVVHTVVTGGQALVDTVSGFAQLASQFPAECLFVVWLNPYWGPIEHEGKGFEQLKAYTTNKGRVSAIIQIPALKEETYGRDFAEMLQDRRTFDEALADSALTIMTRQRLKIVKTQLFAQLENAAVL,not soluble
25,MGSDKIHHHHHHMFGLPGKKSSAVLGVDVSSSSVKLLELSKHGDRYKVESYAVEPLPANAVVEKNITDVEAVGEVLKRVASKSRTSVKQVAVAVSGSAVITKVIQMDGGLNEFEMEDQIALEADQYIPYPLDEVAIDFEVQGPSESNPDQVDVLLAACRKENVDIREDALEIAGLTTKIVDVEAYALERAYSLIEPQLDSQGEELVVAIVDIGATMTTLSVLAEGKTVYTREQIFGGKQLTEEIQRRYGLSLEEAGLAKKQGGLPDDYNEEVLTPFREAVVQQVARALQFFFGASQYNAVDYVVLAGGTASIQGLTEMVEEKTGTPTLVANPFANMAVGSRVNASALSNDAPSLMIACGLAMRSFD,not soluble
